Data as given in paper PMC9741652, “CRL2^ZER1/ZYG11B recognizes small N-terminal residues for degradation” (Nature Communications, 2022).

Experiments:
SFLHVGQD peptide = target: T1, SFLHVGQD peptide; test: ITC; details: chain shown with the change;; parent: 1.3
T1 chain: SFLHVGQD

[1] = target: ZYG11B (residues 490–728), Q9C0D3; test: ITC; details: chain shown with the change;; parent: 2.5 µM
ZYG11B (residues 490–728), Q9C0D3, sequence (Q9C0D3 other isoform, or with tags, fused parts or gaps): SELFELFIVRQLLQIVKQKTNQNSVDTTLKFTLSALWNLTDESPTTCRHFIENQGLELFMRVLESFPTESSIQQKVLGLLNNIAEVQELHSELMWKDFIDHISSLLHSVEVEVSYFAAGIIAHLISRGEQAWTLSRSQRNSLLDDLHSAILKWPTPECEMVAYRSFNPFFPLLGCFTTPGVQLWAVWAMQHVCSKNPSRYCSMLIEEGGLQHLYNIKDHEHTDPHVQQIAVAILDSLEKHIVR

B1: ZER1 (residues 469–766), Q7Z7L7 D556A (protein)
chain: MEELEELEFQYRRVNELLLSILNPTRQDESIQRIAVHLCNALVCQVDNDHKEAVGKMGFVVTMLKLIQKKLLDKTCDQVMEFSWSALWNITAETPDNCEMFLNFNGMKLFLDCLKEFPEKQELHRNMLGLLGNVAEVKELRPQLMTSQFISVFSNLLESKADGIEVSYNACGVLSHIMFDGPEAWGVCEPQREEVEERMWAAIQSWDINSRRNINYRSFEPILRLLPQGISPVSQHWATWALYNLVSVYPDKYCPLLIKEGGMPLLRDIIKMATARQETKEMARKVIEHCSNFKEENMDTSR
Work on B1 yielded a Kd (SFLHVGQD peptide) of over 100 µM.

Binder VFLHVGQD [GFLHVGQD peptide G1V] has a Kd [1] of over 100 µM.

B2: ZER1 (residues 469–766), Q7Z7L7 E600A (protein)
chain: MEELEELEFQYRRVNELLLSILNPTRQDESIQRIAVHLCNALVCQVDNDHKEAVGKMGFVVTMLKLIQKKLLDKTCDQVMEFSWSALWNITDETPDNCEMFLNFNGMKLFLDCLKEFPEKQELHRNMLGLLGNVAAVKELRPQLMTSQFISVFSNLLESKADGIEVSYNACGVLSHIMFDGPEAWGVCEPQREEVEERMWAAIQSWDINSRRNINYRSFEPILRLLPQGISPVSQHWATWALYNLVSVYPDKYCPLLIKEGGMPLLRDIIKMATARQETKEMARKVIEHCSNFKEENMDTSR
B2 was tested, and the Kd (SFLHVGQD peptide) was over 100 µM.
